Literature values, collected in publication PMC5830169.
pKd: −log10 of the molar value.

Molecular target: rhodopsin (UniProt P02699)
Sequence of UniProt P02699 (P02699 whole entry): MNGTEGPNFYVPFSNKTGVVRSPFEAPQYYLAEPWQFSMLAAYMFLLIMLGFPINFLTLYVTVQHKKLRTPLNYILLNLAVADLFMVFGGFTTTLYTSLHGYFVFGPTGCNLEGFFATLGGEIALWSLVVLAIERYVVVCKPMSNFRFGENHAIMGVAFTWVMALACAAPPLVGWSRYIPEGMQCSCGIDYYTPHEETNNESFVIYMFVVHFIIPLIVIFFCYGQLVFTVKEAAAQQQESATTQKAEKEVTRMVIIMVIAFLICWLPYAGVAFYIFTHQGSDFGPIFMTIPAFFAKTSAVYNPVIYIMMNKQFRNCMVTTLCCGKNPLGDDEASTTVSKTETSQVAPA

pKd: 7.30
Substance: visual arrestin (from UniProt P10523)
